Laboratory results published in US20040248233A1 (Dana-Farber, published 2004).
Changes are numbered by the printed parent chain. Ends that are not written are not given here.

B1: Pro564Ala Gal4-HA-HIF1α (530-652) (other)
chain: EFKLELVEKLFAEDTEAKNPFSTQDTDLDLEMLAAYIPMDDDFQLRSFDQLSPLESSSASPESASPQSTVTVFQQTQIQEPTANATTTTATTDELKTVTKDRMEDIKILIASPSPTHIHKETT
notes: range 530-652; also called Gal4-ODD Pro564Ala; not shown: Gal4 moiety and HA tag
B2: Leu562Ala Gal4-HA-HIF1α (530-652) (other)
chain: B1 chain with L33A, A35P
notes: range 530-652; also called Gal4-ODD Leu562Ala; not shown: Gal4 moiety and HA tag

Key:
[1] = molecular target: T1, pVHL (HA-tagged: 35S-HA-pVHL in vitro translate, or HA-pVHL produced in ts20 and WT8 cells) (UniProt P40337 1-213); assay: biotinylated peptide, pVHL binding
T1 construct: Also used for sentences that say only 'pVHL'; In cell lysates pVHL is in complex with elongin B, elongin C and Cul2; also called 35S-labeled pVHL; HA-VHL; not shown: HA tag

[2] = molecular target: T2, GST-VHL, elongin B, elongin C complexes (GST-VBC), immobilized on glutathione sepharose (UniProt P40337 54-213; Q15370 1-118; Q15369 17-112); assay: capture with immobilized GST-VBC
T2 construct: also called VBC-GST; GST-pVHL, elongin B, elongin C complexes

[3] = molecular target: T1, pVHL (HA-tagged: 35S-HA-pVHL in vitro …); assay: biotinylated peptide on avidin Sepharose, 35S-pVHL

T1 sequence (P40337 whole entry): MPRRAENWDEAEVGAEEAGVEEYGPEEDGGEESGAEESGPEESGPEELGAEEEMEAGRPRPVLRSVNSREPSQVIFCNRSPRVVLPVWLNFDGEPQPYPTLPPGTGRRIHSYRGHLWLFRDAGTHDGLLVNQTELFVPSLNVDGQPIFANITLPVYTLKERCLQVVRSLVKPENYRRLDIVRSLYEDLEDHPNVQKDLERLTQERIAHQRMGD

Binder	binding result [1]	binding result [2]	also measured
DLDLEALAPYIPADDDFQLR (peptide, UniProt Q16665 556-575, looked up, also: biotinylated (position not given here), also called double alanine substitution) [biotinylated HIF (556-575) peptide with Met561 and Met568 converted to alanine]	binds		
DLDLEALAPYIPMDDDFQLR (peptide, UniProt Q16665 556-575, looked up, also: biotinylated (position not given here)) [biotinylated HIF (556-575) peptide with the single substitution Met561 to alanine]	binds		
DLDLEMLAPYIPADDDFQLR (peptide, UniProt Q16665 556-575, looked up, also: biotinylated (position not given here)) [biotinylated HIF (556-575) peptide with the single substitution Met568 to alanine]	binds		
B1		no binding	
DLDLEMLAAYIPMDDDFQLR (peptide, UniProt Q16665 556-575, looked up, also: biotinylated (position not given here)) [biotinylated HIF1α (556-575) peptide Pro564Ala]			binding result [3]: no binding
B2		no binding	
